Test results reported in patent US20250051454A1 (DUKE UNIVERSITY, published 2025).
Substitutions are numbered along the chain they refer to.

B1: CA149 (antibody, V domains shown)
VH: EVQLVESGGGLVKPGGSLRLSCAASGFTFSSYSMNWVRQAPGKGLEWVSSISSSSSYIYYADSVKGRFTISRDNAKNSLYLQMNSLRAEDTAVYYCARCAAGFVPDAFDIWGQGTMVTVSS
VL: not shown
B2: CA171 (antibody, V domains shown)
VH: B1 VH with K13Q, S50Y, Y57T, C99T, A100F, A101Y, G102S, F103N, V104Y, P105L
VL: EIVLTQSPDTLSMCPGERATLSCRASQSVSSYLAWYQQKPGQAPRLLIYDASNRATGIPARFSGSGSGTDFTLTISSLEPEDFAVYYCQQRSNWLSMYTFGQGTKLEIK
B3: CA134 (antibody, V domains shown)
VH: EVQLVESGGGLVKPGGSLRLSCAASGFTFSSYSMNWVRQAPGKGLEWVSSISSSSSYIYYADSVKGRFTISRDNAKNSLYLQMNSLRAEDTAVYYCARVFGEQLVSFFDYWGQGTLVTVSS
VL: not shown
B4: CA125 (antibody, V domains shown)
VH: B1 VH with C99V, A100V, A101D, G102T, F103A, V104M, P105G
VL: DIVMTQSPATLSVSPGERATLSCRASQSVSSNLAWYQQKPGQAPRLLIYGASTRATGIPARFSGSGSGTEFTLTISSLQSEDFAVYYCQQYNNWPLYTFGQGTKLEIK
B5: CA156 (antibody, V domains shown)
VH: B3 VH with V99D, G101S, E102G, Q103D, L104F, V105W, F107G, F108Y
VL: not shown
B6: CA118 (antibody, V domains shown)
VH: EVQLVESGGGLVKPGGSLRLSCAASGFTFSSYSMNWVRQAPGKGLEWVSSISSSSSYIYYADSVKGRFTISRDNAKNSLYLQMNSLRAEDTAVYYCARGWQQLAYWDYWGQGTLVTVSS
VL: SYELTQPPSVSVAPGQTARITCGGNNIGSKSVHWYQQKPGQAPVLVVYDDSDRPSGIPERFSGSNSGNTATLTISRVEAGDEADYYCQVWDSSSDHYVFGTGTKVTVL
B7: CA153 (antibody, V domains shown)
VH: EVQLVESGGGLVKPGGSLRLSCAASGFTFSSYSMNWVRQAPGKGLEWVSSISSSSSYIYYADSVKGRFTISRDNAKNSLYLQMNSLRAEDTAVYYCARLTYYYYMDVWGKGTTVTVSS
VL: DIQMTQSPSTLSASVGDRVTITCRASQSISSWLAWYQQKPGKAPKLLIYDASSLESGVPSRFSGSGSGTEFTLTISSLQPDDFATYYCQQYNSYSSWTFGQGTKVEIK
B8: CA158 (antibody, V domains shown)
VH: B7 VH with L99M, T100Y, Y101Q, Y102L, Y103A, Y104A, M105I, V107Y, K110Q, T113L
VL: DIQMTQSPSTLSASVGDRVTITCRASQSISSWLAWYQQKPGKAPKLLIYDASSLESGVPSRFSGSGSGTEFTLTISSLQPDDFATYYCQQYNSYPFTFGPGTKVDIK
B9: CA151 (antibody, V domains shown)
VH: QVQLQESGPGLVKPSETLSLTCTVSGGSVSSGSYYWSWIRQPPGKGLEWIGYIYYSGSTNYNPSLKSRVTISVDTSKNQFSLKLSSVTAADTAVYYCASFTRMSPYAFDIWGQGTMVTVSS
VL: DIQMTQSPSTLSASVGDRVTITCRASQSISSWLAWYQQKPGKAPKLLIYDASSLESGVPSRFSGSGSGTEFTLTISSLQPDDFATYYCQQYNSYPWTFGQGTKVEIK
B10: CA146 (antibody, V domains shown)
VH: EVQLVQSGGGVVQPGRSLRLSCAASGFTFSSYGMHWVRQAPGKGLEWVAVISYDGSNKYYADSVKGRFTISRDNSKNTLYLQMNSLRAEDTAVYYCAKDRYSIVGATSNGMDVWGQGTTVTVSS
VL: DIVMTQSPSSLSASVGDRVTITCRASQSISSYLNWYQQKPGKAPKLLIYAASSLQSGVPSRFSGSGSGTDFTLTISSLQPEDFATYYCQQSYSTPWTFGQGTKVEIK
B11: CA157 (antibody, V domains shown)
VH: EVQLVESGGGLVQPGGSLRLSCAASGFTFSSYEMNWVRQAPGKGLEWVSYISSSGSTIYYADSVKGRFTISRDNAKNSLYLQMNSLRAEDTAVYYCARGYCSSTSCPFDYWGQGTLVTVSS
VL: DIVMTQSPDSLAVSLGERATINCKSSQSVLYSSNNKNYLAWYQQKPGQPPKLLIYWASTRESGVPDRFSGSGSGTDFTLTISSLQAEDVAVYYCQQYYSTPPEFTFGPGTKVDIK
B12: CA144 (antibody, V domains shown)
VH: QVQLVQSGGGLVKPGGSLRLSCAASGFTFSSYSMNWVRQAPGKGLEWVSSISSSSSYIYYADSVKGRFTISRDNAKNSLYLQMNSLRAEDTAVYYCARDRVEMAFHFDYWGQGTLVTVSS
VL: not shown
B13: CA148 (antibody, V domains shown)
VH: QVQLVQSGAEVKKPGASVKVSCKASGYTFTSYGISWVRQAPGQGLEWMGWISAYNGNTNYAQKLQGRVTMTTDTSTSTAYMELRSLRSDDTAVYYCARTPGDEYYYYYYMDVWGKGTTVTVSS
VL: EIVLTQSPATLSLSPGERATLSCRASQSVSSYLAWYQQKPGQAPRLLIYDASNRATGIPARFSGSGSGTDFTLTISSLEPEDFAVYYCQQRSNWPRTFGQGTKLEIK
B14: CA152 (antibody, V domains shown)
VH: QVQLVQSGAEVKKPGSSVKVSCKASGGTFSSYAISWVRQAPGQGLEWMGGIIPIFGTANYAQKFQGRVTITADESTSTAYMELSSLRSEDTAVYYCARGQWSPGGYGMDVWGQGTTVTVSS
VL: not shown
B15: CA154 (antibody, V domains shown)
VH: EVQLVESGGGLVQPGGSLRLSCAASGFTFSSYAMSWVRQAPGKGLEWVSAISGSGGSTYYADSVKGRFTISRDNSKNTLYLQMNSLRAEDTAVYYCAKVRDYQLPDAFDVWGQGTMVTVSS
VL: AIRMTQSPSSFSASTGDRVTITCRASQGISSYLAWYQQKPGKAPKLLIYAASTLQSGVPSRFSGSGSGTDFTLTISCLQSEDFATYYCQQYYSYALTFGGGTKVEIK
B16: CA150 (antibody, V domains shown)
VH: QVQLVQSGAEVKKPGSSVKVSCKASGGTFSSYAISWVRQAPGQGLEWMGGIIPIFGTANYAQKFQGRVTITADESTSTAYMELSSLRSEDTAVYYCASFPNCSSTSCYYYYYMDVWGKGTTVTVSS
VL: QSALTQPASVSGSPGQSITISCTGTSSDVGGYNYVSWYQQHPGKAPKLMIYDVSNRPSGVSNRFSGSKSGNTASLTISGLQAEDEADYYCSSYTSSSTRDVVFGGGTKLTVL
B17: CA141 (antibody, V domains shown)
VH: QVQLQESGGGLVKPGGSLRLSCAASGFTFSSYSMNWVRQAPGKGLEWVSSISSSSSYIYYADSVKGRFTISRDNAKNSLYLQMNSLRAEDTAVYYCARASENGDDAFDIWGQGTMVTVSS
VL: EIVLTQSPATLSLSPGERATLSCRASQSVSSYLAWYQQKPGQAPRLLIYDASNRATGIPARFSGSGSGTDFTLTISSLEPEDFAVYYCQQRSNWPPYTFGQGTKLEIK
B18: CA143 (human antibody on a human IgG1 backbone) (antibody, V domains shown)
VH: B12 VH with R100S, V101L, E102P, M103A, A104G, F105D, H106Y
VL: DIQLTQSPSFLSASVGDRVTITCRASQGISSYLAWYQQKPGKAPKLLIYAASTLQSGVPSRFSGSGSGTEFTLTISSLQPEDFATYYCQQLNSYPQTTFGGGTKVEIK
B19: CA124 (antibody, V domains shown)
VH: EVQLVQSGGGLVKPGGSLRLSCAASGFTFSDYYMSWIRQAPGKGLEWVSYISSSGSTIYYADSVKGRFTISRDNAKNSLYLQMNSLRAEDTAVYYCASGFSSWGADDYWGQGTLVTVSS
VL: DIVMTQSPSSLSASVGDRVTITCRASQGISNYLAWFQQKPGKAPKSLIYAASSLQSGVPSKFSGSGSGTDFTLTISSLQPEDFATYYCQQYNSYPLTFGQGTKLEIK
B20: CA139 (antibody, V domains shown)
VH: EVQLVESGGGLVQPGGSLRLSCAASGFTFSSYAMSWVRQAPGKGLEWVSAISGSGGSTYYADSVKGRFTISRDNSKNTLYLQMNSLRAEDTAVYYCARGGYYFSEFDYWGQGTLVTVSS
VL: B19 VL with Q100G, L104V
B21: CA159 (antibody, V domains shown)
VH: QVQLVQSGAEVKKPGSSVKVSCKASGGTFSSYAISWVRQAPGQGLEWMGGIIPIFGTANYAQKFQGRVTITADESTSTAYMELSSLRSEDTAVYYCARASYYYYYMDVWGKGTTVTVSS
VL: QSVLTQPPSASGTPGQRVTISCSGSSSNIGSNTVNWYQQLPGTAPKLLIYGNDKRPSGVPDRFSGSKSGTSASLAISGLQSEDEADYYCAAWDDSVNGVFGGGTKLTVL
B22: CA131 (antibody, V domains shown)
VH: QVQLQESGSGLVKPSQTLSLTCAVSGGSISSGGYSWSWIRQPPGKGLEWIGYIYHSGSTYYNPSLKSRVTISVDRSKNQFSLKLSSVTAADTAVYYCATGGGHKELGGWGPRGTLVTVSS
VL: not shown
B23: CA128 (antibody, V domains shown)
VH: QVQLVQSGGGLVKPGGSLRLSCAASGFTFSDYYMSWIRQAPGKGLEWVSYISSSGSTIYYADSVKGRFTISRDNAKNSLYLQMNSLRAEDTAVYYCARDSGSFVGVFDYWGQGTLVTVSS
VL: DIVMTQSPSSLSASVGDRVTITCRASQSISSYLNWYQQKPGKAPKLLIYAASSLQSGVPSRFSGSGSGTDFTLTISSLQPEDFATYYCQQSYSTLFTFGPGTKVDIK
B24: CA145 (antibody, V domains shown)
VH: B23 VH with Q1E, Q6E, S100V, G101L, S102E, F103L, V104R, G105W, V106W, Y109P
VL: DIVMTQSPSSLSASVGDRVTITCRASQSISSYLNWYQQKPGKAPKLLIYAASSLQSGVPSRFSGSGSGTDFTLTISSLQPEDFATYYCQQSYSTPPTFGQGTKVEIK

Legend:
[1] = molecular target: T1, HLA-E-RL9HIV single chain trimer on transfected 293T cells (human, UniProt P61769 21-119; P13747 22-358); assay: flow cytometry, SCT-transfected 293T cells, MFI bar chart [E]
T1 construct: also called control HLA-E-peptide complex

[2] = molecular target: T2, HLA-E-RL9SIV single chain trimer on transfected 293T cells (human, UniProt P61769 21-119; P13747 22-358); assay: as above
T2 construct: also called control HLA-E-peptide complex

| Binder | binding result [1] | binding result [2] |
| --- | --- | --- |
| B1 | no binding (tested: 2 µg/ml) | no binding (tested: 2 µg/ml) |
| B2 | no binding (tested: 2 µg/ml) |  |
| B3 | no binding (tested: 2 µg/ml) | no binding (tested: 2 µg/ml) |
| B4 | no binding (tested: 2 µg/ml) | no binding (tested: 2 µg/ml) |
| B5 | no binding (tested: 2 µg/ml) | no binding (tested: 2 µg/ml) |
| B6 | no binding (tested: 2 µg/ml) | no binding (tested: 2 µg/ml) |
| B7 | no binding (tested: 2 µg/ml) | no binding (tested: 2 µg/ml) |
| B8 | no binding (tested: 2 µg/ml) | no binding (tested: 2 µg/ml) |
| B9 | no binding (tested: 2 µg/ml) | no binding (tested: 2 µg/ml) |
| B10 | no binding (tested: 2 µg/ml) | no binding (tested: 2 µg/ml) |
| B11 | no binding (tested: 2 µg/ml) | no binding (tested: 2 µg/ml) |
| B12 | no binding (tested: 2 µg/ml) | no binding (tested: 2 µg/ml) |
| B13 | no binding (tested: 2 µg/ml) | no binding (tested: 2 µg/ml) |
| B14 | no binding (tested: 2 µg/ml) | no binding (tested: 2 µg/ml) |
| B15 | no binding (tested: 2 µg/ml) | no binding (tested: 2 µg/ml) |
| B16 | no binding (tested: 2 µg/ml) | no binding (tested: 2 µg/ml) |
| B17 | no binding (tested: 2 µg/ml) | no binding (tested: 2 µg/ml) |
| B18 | no binding (tested: 2 µg/ml) | no binding (tested: 2 µg/ml) |
| B19 | no binding (tested: 2 µg/ml) | no binding (tested: 2 µg/ml) |
| B20 | no binding (tested: 2 µg/ml) | no binding (tested: 2 µg/ml) |
| B21 | no binding (tested: 2 µg/ml) | no binding (tested: 2 µg/ml) |
| B22 | no binding (tested: 2 µg/ml) | no binding (tested: 2 µg/ml) |
| B23 | no binding (tested: 2 µg/ml) | no binding (tested: 2 µg/ml) |
| B24 | no binding (tested: 2 µg/ml) | no binding (tested: 2 µg/ml) |
